Laboratory results published in paper PMC5260945 (Nature structural & molecular biology, 2011).
Residue numbers refer to the chain shown, from its start. Names may count otherwise. Each block holds one binder with its values, some of them ahead of it.

How the values were obtained:
15N-labeled Ub = 15N-labeled Ub (UniProt P0CG47 1-76); experiment: NMR titration
[1] = biological target: Unlabeled Ub (from bovine red blood cells, Sigma-Aldrich) (bovine, UniProt P0CG53 1-76); experiment: NMR titration

Kd (15N-labeled Ub): 134 ± 19 µM | binding result [1]: binds
B1: TRABID AnkUBD (aa 245-339) (domain or fragment)
chain: LEVDFKKLKQIKNRMKKTDWLFLNACVGVVEGDLAAIEAYKSSGGDIARQLTADEVRLLNRPSAFDVGYTLVHLAIRFQRQDMLAILLTEVSQQA

Kd (15N-labeled Ub): > 1200 µM
B2: TRABID AnkUBD H317A (domain or fragment)
chain: B1 chain with H73A
